Laboratory results: US20250042994A1 (HAINAN SIMCERE ZAIMING PHARMACEUTICAL, published 2025)
Residue numbers refer to the chain shown, from its start. One block for each binder: values may come before it.

What was measured:
[1] = target: T1, human CD19 on Raji cells (human, UniProt P15391 20-556); assay: FACS on Raji cells
T1 construct: whole, on cells
T1 sequence (looked up): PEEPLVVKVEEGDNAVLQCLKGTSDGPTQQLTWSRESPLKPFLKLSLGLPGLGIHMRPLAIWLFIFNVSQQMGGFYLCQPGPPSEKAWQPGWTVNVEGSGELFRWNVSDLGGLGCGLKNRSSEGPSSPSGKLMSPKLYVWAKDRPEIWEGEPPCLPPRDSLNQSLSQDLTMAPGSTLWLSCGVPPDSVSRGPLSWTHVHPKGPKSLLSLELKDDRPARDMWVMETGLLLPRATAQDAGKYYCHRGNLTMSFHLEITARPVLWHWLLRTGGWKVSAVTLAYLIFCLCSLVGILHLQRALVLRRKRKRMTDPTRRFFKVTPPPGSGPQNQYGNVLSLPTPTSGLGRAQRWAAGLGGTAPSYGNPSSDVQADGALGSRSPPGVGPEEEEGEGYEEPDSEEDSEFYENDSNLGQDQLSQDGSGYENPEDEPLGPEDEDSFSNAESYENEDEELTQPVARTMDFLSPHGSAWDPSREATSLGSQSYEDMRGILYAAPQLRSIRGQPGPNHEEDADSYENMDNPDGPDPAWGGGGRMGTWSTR

[2] = target: T2, Human CD19-his protein (human, UniProt P15391 20-291); assay: ELISA, coated human CD19-His
T2 construct: bought protein; also called recombinant human CD19-His; CD19 full-length protein; not shown: His tag
T2 sequence (looked up): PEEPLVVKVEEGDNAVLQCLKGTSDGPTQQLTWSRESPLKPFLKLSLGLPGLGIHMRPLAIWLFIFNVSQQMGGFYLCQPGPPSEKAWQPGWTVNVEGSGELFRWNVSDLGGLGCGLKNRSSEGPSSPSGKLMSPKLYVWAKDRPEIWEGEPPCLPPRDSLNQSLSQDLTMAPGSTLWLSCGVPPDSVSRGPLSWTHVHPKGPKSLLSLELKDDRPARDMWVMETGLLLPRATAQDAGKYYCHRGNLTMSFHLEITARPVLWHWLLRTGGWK

[3] = target: T3, human CD19 on CHO-K1-human CD19 cells (human, UniProt P15391 20-556); assay: FACS on CHO-K1-human CD19 cells
T3 construct: whole, on cells; also called CHO-K1-human CD19-2C8
T3 sequence (looked up): T1 sequence (looked up)

[4] = target: T2, Human CD19-his protein; assay: ELISA on coated human CD19-His
[5] = target: T4, human CD19 exon1-3-His tag protein (human, UniProt P15391 20-186, limits assumed); assay: ELISA, coated human CD19 exon 1-3-His
T4 construct: membrane-distal part of the extracellular region, made in HEK293E cells; not shown: His tag
T4 sequence (looked up): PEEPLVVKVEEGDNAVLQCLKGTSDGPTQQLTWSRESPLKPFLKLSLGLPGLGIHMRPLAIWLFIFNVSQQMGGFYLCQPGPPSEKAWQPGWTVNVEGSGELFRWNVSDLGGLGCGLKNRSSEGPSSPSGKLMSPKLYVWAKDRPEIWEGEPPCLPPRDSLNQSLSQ

[6] = target: T4, human CD19 exon1-3-His tag protein; assay: ELISA on coated human CD19 exon 1-3-His
[7] = target: T2, Human CD19-his protein; assay: SPR Biacore, method of example 7.1, human CD19-His
Method in brief: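 Antibody captured on Protein A chip; recombinant human CD19-His injected for 240 s at 30 μl/min, five 1:1 dilutions from 200 nM, dissociation up to 600 s.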

[8] = target: T2, Human CD19-his protein; assay: SPR Biacore, Ab captured on Protein A, CD19-His analyte
Method in brief: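 Antibodies were captured on a Protein A chip at 25 °C in HBS-EP+. Human CD19-His was injected for 240 s at 30 μl/min at 5 concentrations from 200 nM (1:1 dilutions), with dissociation up to 600 s. Data were double-referenced and fitted to a Langmuir 1:1 model for apparent KD.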

EC50 [1]: 310 pM
Maximum mean fluorescence intensity [1]: 32900 MFI
OD450 at 0.0001 nM [2]: 0.05 OD450
OD450 at 0.001 nM [2]: 0.06 OD450
OD450 at 0.01 nM [2]: 0.11 OD450
OD450 at 0.10 nM [2]: 0.5 OD450
OD450 at 1.00 nM [2]: 0.88 OD450
OD450 at 10 nM [2]: 1.04 OD450
OD450 at 100 nM [2]: 0.82 OD450
EC50 [3]: 300 pM
Maximum mean fluorescence intensity [3]: 53700 MFI
EC50 (read off the curve) [4]: ~100 pM
OD450 at 0.0001 nM [5]: 0.05 OD450
OD450 at 0.001 nM [5]: 0.05 OD450
OD450 at 0.01 nM [5]: 0.05 OD450
OD450 at 0.10 nM [5]: 0.05 OD450
OD450 at 1.00 nM [5]: 0.05 OD450
OD450 at 10 nM [5]: 0.05 OD450
OD450 at 100 nM [5]: 0.07 OD450
binding result [6]: no binding (tested: 100 nM)
Kd [7]: 1150 pM
koff [7]: 0.000375 s⁻¹
kon [7]: 327000 M⁻¹ s⁻¹
Kd [8]: 1150 pM
koff [8]: 0.000375 s⁻¹
kon [8]: 327000 M⁻¹ s⁻¹
B1: F3.121.4 (antibody, human IgG1, V domains shown)
VH: QVQLQQPGAELVVPGTSVKLSCKASGYTFTNYWMHWVKQRPGQGLEWIGEIDPSDNYANYNQEFQGKATLTVDKSSSTAYMQLSSLTSDDSAVYYCARHDGYFGALDYWGQGTSVTVSS
VL: EIVLTQSPTTMAASPGEKITITCSASSSISSNYLHWYQQKPGFSPKFLIYRTSNLASGVPARFSGSGSGTSYSLTIGTMEAEDVATYYCQQASSIPRMFTFGSGTKLEIK
notes: human-murine chimeric antibody, human IgG1 constant; also called chimeric antibody F3.121.4

EC50 [1]: 450 pM
Maximum mean fluorescence intensity [1]: 32200 MFI
OD450 at 0.0001 nM [2]: 0.1 OD450
OD450 at 0.001 nM [2]: 0.15 OD450
OD450 at 0.01 nM [2]: 0.43 OD450
OD450 at 0.10 nM [2]: 1.65 OD450
OD450 at 1.00 nM [2]: 2.28 OD450
OD450 at 10 nM [2]: 2.22 OD450
OD450 at 100 nM [2]: 2.19 OD450
EC50 [3]: 1160 pM
Maximum mean fluorescence intensity [3]: 51800 MFI
EC50 (read off the curve) [4]: ~50 pM
OD450 at 0.0001 nM [5]: 0.05 OD450
OD450 at 0.001 nM [5]: 0.05 OD450
OD450 at 0.01 nM [5]: 0.05 OD450
OD450 at 0.10 nM [5]: 0.05 OD450
OD450 at 1.00 nM [5]: 0.05 OD450
OD450 at 10 nM [5]: 0.05 OD450
OD450 at 100 nM [5]: 0.08 OD450
Kd [7]: 8.8 pM
koff [7]: 1.04e-06 s⁻¹
kon [7]: 118000 M⁻¹ s⁻¹
B2: F3.121.4-L3H3 (antibody, mouse IgG1, kappa)
heavy: EVQLVQSGAEVKKPGASVKVSCKASGYTFTNYWMHWVRQRPGQGLEWMGEIDPSDNYANYNQEFQGRVTITVDKSASTAYMELSSLRSEDTAVYYCARHDGYFGALDYWGQGTTVTVSSAKTTPPSVYPLAPGSAAQTNSMVTLGCLVKGYFPEPVTVTWNSGSLSSGVHTFPAVLQSDLYTLSSSVTVPSSTWPSETVTCNVAHPASSTKVDKKIVPRDCGCKPCICTVPEVSSVFIFPPKPKDVLTITLTPKVTCVVVDISKDDPEVQFSWFVDDVEVHTAQTQPREEQFNSTFRSVSELPIMHQDWLNGKEFKCRVNSAAFPAPIEKTISKTKGRPKAPQVYTIPPPKEQMAKDKVSLTCMITDFFPEDITVEWQWNGQPAENYKNTQPIMDTDGSYFVYSKLNVQKSNWEAGNTFTCSVLHEGLHNHHTEKSLSHSPGK
light: EIVLTQSPDFQSVTPKEKVTITCSASSSISSNYLHWYQQKPDQSPKFLIYRTSNLASGVPSRFSGSGSGTDFTLTINSLEAEDAATYYCQQASSIPRMFTFGQGTKLEIKRADAAPTVSIFPPSSEQLTSGGASVVCFLNNFYPKDINVKWKIDGSERQNGVLNSWTDQDSKDSTYSMSSTLTLTKDEYERHNSYTCEATHKTSTSPIVKSFNRNEC
notes: humanized antibody of F3.121.4, VL3+VH3, murine IgG1 constant regions

EC50 [1]: 430 pM
Maximum mean fluorescence intensity [1]: 32500 MFI
OD450 at 0.0001 nM [2]: 0.11 OD450
OD450 at 0.001 nM [2]: 0.16 OD450
OD450 at 0.01 nM [2]: 0.51 OD450
OD450 at 0.10 nM [2]: 1.68 OD450
OD450 at 1.00 nM [2]: 2.31 OD450
OD450 at 10 nM [2]: 2.26 OD450
OD450 at 100 nM [2]: 2.31 OD450
EC50 [3]: 1050 pM
Maximum mean fluorescence intensity [3]: 50500 MFI
EC50 (read off the curve) [4]: ~50 pM
OD450 at 0.0001 nM [5]: 0.06 OD450
OD450 at 0.001 nM [5]: 0.06 OD450
OD450 at 0.01 nM [5]: 0.06 OD450
OD450 at 0.10 nM [5]: 0.06 OD450
OD450 at 1.00 nM [5]: 0.06 OD450
OD450 at 10 nM [5]: 0.07 OD450
OD450 at 100 nM [5]: 0.11 OD450
Kd [7]: 225 pM
koff [7]: 2.51e-05 s⁻¹
kon [7]: 112000 M⁻¹ s⁻¹
B3: F3.121.4-L3H4 (antibody, mouse IgG1, kappa)
heavy: B2 heavy with V5Q
light: B2 light
notes: humanized antibody of F3.121.4, VL3+VH4, murine IgG1 constant regions
